Laboratory results from paper doi:10.1101/2020.10.04.325654.
pEC50: −log10 of the molar value. Where two headings read alike, the source gives them in different places.

Experiments:
Assay in all cases: ELISA
[1] = target: His-tagged ASH/RhoGAP domain of OCRL (536aa-901aa) (human) (UniProt Q01968)
[2] = target: His-tagged ASH/RhoGAP domain of OCRL (536aa-901aa) (human) (UniProt Q01968); remark: listed apart in the source
[3] = target: His-tagged ASH/RhoGAP domain of OCRL (536aa-901aa) (human) (UniProt Q01968); remark: listed apart in the source

Chain of His-tagged ASH/RhoGAP domain of OCRL (536aa-901aa) (human) (Q01968 536-901): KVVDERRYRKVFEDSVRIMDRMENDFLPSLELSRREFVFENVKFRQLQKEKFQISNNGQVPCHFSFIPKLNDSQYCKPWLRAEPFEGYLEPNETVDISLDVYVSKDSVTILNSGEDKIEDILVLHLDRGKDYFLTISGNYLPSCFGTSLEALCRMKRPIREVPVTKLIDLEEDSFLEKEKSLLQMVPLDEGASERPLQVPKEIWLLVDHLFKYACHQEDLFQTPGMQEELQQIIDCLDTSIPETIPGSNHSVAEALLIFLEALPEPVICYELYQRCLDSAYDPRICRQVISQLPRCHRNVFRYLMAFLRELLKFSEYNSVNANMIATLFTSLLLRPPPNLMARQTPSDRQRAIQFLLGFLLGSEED

GST-SdhA-CBM2A (from UniProt Q6RCQ3 1029-1080) (domain or fragment)
pEC50 [1]: 7.57 | pEC50 [2]: 8.09

GST-SdhA-CBM2 (from UniProt Q6RCQ3 1029-1260) (domain or fragment)
pEC50 [1]: 7.09 | pEC50 [3]: 7.06
